Here are results for four molecules from patent US20130137856A1 (published 2013).

Assay [1] addresses β2AR truncated after amino acid 365 (β2AR-365) having an amino terminal Flag epitope tag, native, … (human, UniProt P07550 1-365). The assay is described as follows: cell-based or functional assay.
Assay [2] has as its target full-length human β2AR in commercial insect cell-derived membranes (human, UniProt P07550 1-413). The assay is described as follows: cell-based or functional assay.

Substitutions are numbered along the chain they refer to.

B1: Nb71 (VHH, not shown: small tags and cut ends)
VHH: QVQLQESGGGLVQPGGSLRLSCAASGFAFSSYELRWYRQAPGKQHELVAGITTGGNTYYADSVKGRFTISRDNAKNTVYLQMSNLRPEDTAVYACNANWDLLSDYWGQGTQVTVSS
For B1, in assay [1], the “Isoproterenol Ki, [3H]-DHA competition binding on Sf9 membranes in the presence of 1 µM nanobody (β2AR alone: 295)” value (“Isoproterenol Ki” for short) was found to be 10.6 nM.

B2: Nanobody-80 (Nb80) (VHH, not shown: small tags and cut ends)
VHH: QVQLQESGGGLVQAGGSLRLSCAASGSIFSINTMGWYRQAPGKQRELVAAIHSGGSTNYANSVKGRFTISRDNAANTVYLQMNSLKPEDTAVYYCNVKDYGAVLYEYDYWGQGTQVTVSS
Take B2: in assay [2], the “Potency shift of CGP12177A (antagonist): IC50 with irrelevant Nb / IC50 with 500 nM Nb80, 3H-DHA competition” value stood at 1 ratio; the “Potency shift of ICI118,551 (inverse agonist): IC50 with irrelevant Nb / IC50 with 500 nM Nb80, 3H-DHA competition” value came out at 0.9 ratio; the “Potency shift of alprenolol (antagonist): IC50 with irrelevant Nb / IC50 with 500 nM Nb80, 3H-DHA competition” value was 1.1 ratio; the “Potency shift of carvedilol (antagonist): IC50 with irrelevant Nb / IC50 with 500 nM Nb80, 3H-DHA competition” value came out at 1.2 ratio. Further, in assay [2], the “Potency shift of dobutamine (partial agonist): IC50 with irrelevant Nb / IC50 with 500 nM Nb80, 3H-DHA competition” value was determined as 2.3 ratio; the “Potency shift of fenoterol (full agonist): IC50 with irrelevant Nb / IC50 with 500 nM Nb80, 3H-DHA competition” value was found to be 3.7 ratio; the “Potency shift of formoterol (agonist): IC50 with irrelevant Nb / IC50 with 500 nM Nb80, 3H-DHA competition” value was 4 ratio; the “Potency shift of isoproterenol (agonist): IC50 with irrelevant Nb / IC50 with 500 nM Nb80, 3H-DHA competition” value was 8.8 ratio. For the same molecule, in assay [2], the “Potency shift of metaproterenol (agonist): IC50 with irrelevant Nb / IC50 with 500 nM Nb80, 3H-DHA competition” value worked out at 2.9 ratio; the “Potency shift of procaterol (agonist): IC50 with irrelevant Nb / IC50 with 500 nM Nb80, 3H-DHA competition” value came to 2.3 ratio; the “Potency shift of ritodrine (agonist): IC50 with irrelevant Nb / IC50 with 500 nM Nb80, 3H-DHA competition” value was determined as 2.7 ratio; the “Potency shift of salbutamol (partial agonist): IC50 with irrelevant Nb / IC50 with 500 nM Nb80, 3H-DHA competition” value amounted to 4.2 ratio. In assay [2], the “Potency shift of salmeterol (full agonist): IC50 with irrelevant Nb / IC50 with 500 nM Nb80, 3H-DHA competition” value worked out at 3.3 ratio; the “Potency shift of terbutaline (partial agonist): IC50 with irrelevant Nb / IC50 with 500 nM Nb80, 3H-DHA competition” value amounted to 4.3 ratio; the “Potency shift of timolol (antagonist): IC50 with irrelevant Nb / IC50 with 500 nM Nb80, 3H-DHA competition” value was determined as 0.6 ratio.

B3: Nb65 (VHH, not shown: small tags and cut ends)
VHH: B2 VHH with N61D, K64R, A75K
Regarding B3, the “Isoproterenol Ki” value in assay [1] was found to be 13.8 nM.

B4: Nb67 (VHH, not shown: small tags and cut ends)
VHH: QVQLQESGGGLVQAGGSLRLSCAASGTISSFIAMGWYRQSPGKQRELVAGITSGGETNYEDSVKGRFTISRDNAKNTLYLQMNTLKPEDTAVYYCNAQVFADIFNLINYWGQGTQVTVSS
In the case of B4, in assay [1], the “Isoproterenol Ki” value came out at 19.4 nM.
